How the values were obtained:
RSV F on RSV-A2 virus [1] = target: RSV F on RSV-A2 virus (Respiratory syncytial virus, RSV-A2, UniProt P03420 26-574); experiment: cell-based or functional assay
[2] = target: RSV prefusion F (preF), DS-Cav1 (Respiratory syncytial virus, UniProt P03420 26-513); experiment: BLI, IgG on anti-human IgG sensor
[3] = target: RSV postfusion F (postF), F ΔFP (Respiratory syncytial virus, UniProt P03420 26-513); experiment: BLI, IgG on anti-human IgG sensor, 100 nM antigen
RSV F on RSV-A2 virus [4] = target: RSV F on RSV-A2 virus (Respiratory Syncytial Virus (RSV-A2), UniProt P03420 26-574); experiment: cell-based or functional assay
[5] = target: RSV postfusion F (postF), F ΔFP (Respiratory Syncytial Virus, UniProt P03420 26-513); experiment: BLI, IgG on anti-human IgG sensor, 100 nM antigen, 1:1 fit
[6] = target: RSV prefusion F (preF), DS-Cav1 (Respiratory Syncytial Virus, UniProt P03420 26-513); experiment: BLI, IgG on anti-human IgG sensor

Binder | Neutralization IC50 (RSV subtype A) (RSV F on RSV-A2 virus [1]) | binding result [2] | Kd [3] | Neutralization IC50 (RSV subtype A) (RSV F on RSV-A2 virus [4]) | Kd [5] | binding result [6]
ADI-41690 (antibody, V domains shown, also called Ab 893; Antibody Number 893) VH: QVQLVQSGAEVKKPGESLRISCKGSGYSFSSHWIGWVRQKPGKGLEWMGIIYPGDSDTRYSPSFQGHVTISADKSISTAYLRWSSLKASDTAIYYCAKRMVGDYYGMNLWGQGTTVTVSS VL: EIVMTQSPSSLSASVGDRVTITCQASQDISNRLNWYQQKPGKAPKLLIYDASNLETGVPSRFSGSGSGTDFTFTISSLQPEDIATYFCQQYDYLLWFTFGPGTKVDIK | > 25 µg/mL | no binding (tested: 100 nM antigen) | 8.78 nM | – | – | –
ADI-41805 (antibody, V domains shown, also called Ab 914; Antibody Number 914) VH: QVQLVQSGAEVKKPGESLKISCKASGYSFTSYWIAWVRQMPGKGLEWMGIIFPGDSDTRYSPSFQGQVTISADKSISTAYLQWSSLEASDTAMYYCAKSTTYYYYGLDVWGQGTTVTVSS VL: QPVLTQPASVSGSPGQSITISCTGTSSDVGGYDYVSWYQQYPGKAPKLMIYEVSNRPLGVSNRFSGSRSGYTASLTISGLQAEDETNYYCSSYTSSRTWVFGGGTKLTVL | > 25 µg/mL | no binding (tested: 100 nM antigen) | 2 nM | – | – | –
ADI-41458 (antibody, V domains shown) VH: EVQLLESGSGLVKPSQTLSLTCAVSGDSLNSALYSWSWIRQPPGKGLEWIGYIYYSGSTYYNSSLKSRVTISIDRSKNQFSLNLNSVTAADTAVYYCASLQTGYSSGWFFDFWGPGTLVTVSS VL: EIVLTQSPGTLSLSPGERATLSCRASQSVSRTYLTWYQQKPGQAPRLLIYGASNRATGIPDRFSGSGSGTDFTLTISRLEPEDFAVYYCQQYGSTPLFGQGTKVEIK | – | – | – | > 25 µg/mL | 0.549 nM | no binding
ADI-41462 (antibody, V domains shown) VH: QVQLQQWGAGLVKPSETLSLSCDVYGGSFSGYYWTWIRQPPGKGLEWIGEINHSGRTNYNPSLKNRVTISVDTSKKQFSLKLSSVTAADTAVYFCARAPYYDIVTDYNITTAYFYGMDVWGQGTTVTVSS VL: not shown | – | – | – | > 25 µg/mL | 1.54 nM | no binding
ADI-41465 (antibody, V domains shown) VH: QVQLVQSGGGVVQPGRSLRLSCAASGFTFTSYDMHWVRQAPGKGLEWVAIISHDGSKQFYADSVKGRFTISRDNSKNTLYLQMNSLRPEDTAMYYCAKDTPSWGLLAEFFRHWGQGTLVTVSS VL: not shown | – | – | – | > 25 µg/mL | 1.73 nM | no binding
ADI-41477 (antibody, V domains shown, also called Ab 760; Antibody Number 760) VH: QVQLVQSGAEVKKPGASVRVSCKASGYPFISYYIHWVRQAPGQGLEWMGMINTNGGSTHYAQKFQGRVTMTRDTSTTTIYMELSRLKSEDTAYYFCARDNTETVLHGFWSGYGSYLDYWGQGTLVTVSS VL: EIVLTQSPGTLSLSPGGRATLSCRASQSVTSSYLAWYQQRPGQAPRLLIYGASSRAAGIPDRFSGSGSGTDFTLTISRLEPEDFAVYYCQQYGSAPLTFGGGTKLEIK | – | – | – | > 25 µg/mL | 0.505 nM | no binding
ADI-41479 (antibody, V domains shown) VH: QVQLVQSGAEVKKPGESLKISCKGSGYSFISYWIGWVRQMPGKGLEWMGIIYPADSDTRYSPSFQGQVTISVDKSISTAYLQWSSLKASDTGMYYCVRYGVGGTAPRYWGQGTTVTVSS VL: NFMLTQPHSVSESPGKTVTISCTGSSGSIASNYVHWYQQRPGSAPTTVIYEDNQRPSGVPDRFSGSIDSSSNSASLTISGLKTEDEADYYCQSYDISNLWVFGGGTKLTVL | – | – | – | 0.46 µg/mL | 33.1 nM | no binding
ADI-41488 (antibody, V domains shown, also called Ab 769; Antibody Number 769) VH: EVQLVESGPGLVKPSETLSLTCTVSGGSINSDYWNWIRQTPGKGLEWIGYIFYSGNTNYNPSLKSRVTISIDTSKKKFSLQVTSVTAADTAVYYCARMGTLKFDFDNWGQGTLVTVSS VL: QSALTQPRSVSGSPGQSVTIPCTGTSSDVGAYKYVSWYQQHPGKAPKLIIYDVTKRPSGVPNRFSGSKSGNTASLTISGLQAEDEADYYCCSYAGTHTYWVFGGGTKVTVL | – | – | – | > 25 µg/mL | 0.605 nM | no binding
ADI-41507 (antibody, V domains shown) VH: QVTLKESGPTLVKPTQTLRLTCTFSGFSLNVISGVGVGWIRQPPGKALEWLALIYWDDDKRYSPSLKSRLTIAKDTSKNQVVLTMTNMDPVDTATYYCAHKGGSIEAAVGFDYWGQGTLVTVSS VL: QSVLTQPPSVSGAPGQRVIISCTGSSSNIGAGFAVHWYQQLPGTAPKLLIYANTNRPSGVPDRFSGSKSGTSASLAITGLQAEDEADYYCQSYDTSLSGFYVFGTGTKLTVL | – | – | – | > 25 µg/mL | 140 nM | no binding
ADI-41525 (antibody, V domains shown, also called Ab 797; Antibody Number 797) VH: QVQLVQSGAEMKKPGSSVKVSCKASGRTFKYFALNWMRRAPGHGLEWIGGDIPISGSTNYAQKFQGRVTITADESASTAYMEVSRLRSDDTAVYYCASLHYDVSTGFSDAFDIWGQGTMVTVSS VL: QSVLTQPASVSGSPGQSITISCTGTSSDVGAYNYVSWYQHHPGKAPKLMIFDVSNRPSGVSNRFSGSKSGNTASLTISGLQAEDEADYYCSSYRSTFSYVFGTGTKVTVL | – | – | – | > 25 µg/mL | 0.327 nM | no binding
ADI-41544 (antibody, V domains shown, also called Ab 816; Antibody Number 816) VH: QVQLVQSGAEVKKPGESLKISCKGSGYSFTNYWIGWVRQMPGKGLEWMGIIFPADSDTRYSPSFQGQVTISADKSVSTAYLQWTSLKASDTAIYYCARLGVAAAGGYWGQGTLVTVSS VL: not shown | – | – | – | > 25 µg/mL | 0.805 nM | no binding
ADI-41546 (antibody, V domains shown) VH: QVQLVQSGAEVKKPGESLKISCKGSGYSFTNYWIGWVRQMPGKGLEWMGIIFSADSDTRYSPSFQGQVTISADKSISTAYLQWSSLKASDTAMYYCARQWGITGDAFDIWGQGTMVTVSS VL: DIQVTQSPSFLSASVGDRVTITCRASQGISGYLAWYQQKPGKAPKLLIYAASTLQSGVPSRFSGSGSGTEFTLTISSLQPEDFATYYCQQLNSYPYTFGQGTKVEIK | – | – | – | > 25 µg/mL | 1.08 nM | no binding
ADI-41553 (antibody, V domains shown, also called Ab 835; Antibody Number 835) VH: EVQLVESETEVKKPGASVKVSCKASGYTFTKYGISWVRQAPGQGLEWMGWISAYNGNTMYPHKLLGRVTMTTDTSTSTAYMELRSLRSDDTAVYYCARDQTYYDFWSGYYTYWGQGTLVTVSS VL: not shown | > 25 µg/mL | no binding (tested: 100 nM antigen) | 0.804 nM | – | – | –
ADI-41556 (antibody, V domains shown) VH: EVQLLESGGGLVKPGGSLRLSCAASGFSFSSYSMHWVRQAPGKGLEWVSSISSSSTYIYYADSVKGRFTISRDNAKTSLFLQMNSLRAEDTAVYYCARDPYSSGWYWDWGQGTTVTVSS VL: not shown | > 25 µg/mL | no binding (tested: 100 nM antigen) | 2.28 nM | – | – | –
ADI-41562 (antibody, V domains shown, also called Ab 842; Antibody Number 842) VH: QVQLVQSGAEVKKPGASVRVSCKTSGYAFSKYGISWVRQAPGQGLEWIGWISAYNENTHFSHKFLGRVTMTTDTSTGIAYMDLRSLKSDDTAVYYCARDWYSLGSDWYFGPMFDYWGQGTLVTVSS VL: EIVLTQSPDTLSVSPGERATLSCRASQSVTTNLAWYQQKPGHAPRLLIYGASTRATGIPARFSGSGSGTEFTLTISSLQSEDFAIYYCQQYTNWPRTFGQGTKVEIK | > 25 µg/mL | no binding (tested: 100 nM antigen) | 0.676 nM | – | – | –
ADI-41574 (antibody, V domains shown, also called Ab 850; Antibody Number 850) VH: QITLKESGPTLVKPTQTLTLTCTFSGFSLSTSGVGVAWIRQPPGKALEWLALIYWDDDKRYSPSLKSRLTITKDTSKNQVVLTMTNMDPVDTATYYCAHSSVYTTPFDYWGQGSLVTVSS VL: DIQLTQSPSTLSASVGDRVTITCRASQSISDWLAWYQQKPGKAPKLLIYKAFTLESGVPSRFSGSGSGTEFTLTISSLQPDDFATYYCQQYTSYWTFGQGTKVEIK | > 25 µg/mL | no binding (tested: 100 nM antigen) | 123 nM | – | – | –
ADI-41576 (antibody, V domains shown, also called Ab 851; Antibody Number 851) VH: QVTLKESGPTLVKPTQTLTLSCSFSGFSLSAYAVGVGWIRQPPGKALEWLALIYWDDDKRYSPSLETRLTITKDTSKNQVVLTMTKMDPVDTATYYCVYSYNGYYEYMDVWGNGTTVTVSS VL: DIVMTQSPATLSLSPGERATLSCRASQSVSNYLAWYQQKPGQAPRLLISGASNRATGIPDRFSGSGSGTDFTLTITTPEPEDFAVYYCQQRNAWPRTFGQGTKVEIK | > 25 µg/mL | no binding (tested: 100 nM antigen) | 1.43 nM | – | – | –
ADI-41582 (antibody, V domains shown, also called Ab 856; Antibody Number 856) VH: EVQLVESGPGLVKPSQTLSLTCTVSGGPISSGVYYWSWIRQHPGKGLESIGYIYYSGSTHYNPSLKTRVTISLDTSKNQFSLKLSSVTAADTAVYYCARGCSGGSCYLYAFDIWGQGTTVTVSS VL: QPVLTQPPSVSVAPGQTARITCGGNNIGTKSVHWYQQKPGQAPLLVVYDDSDRPSGIPERFSGSNSGNTATLTISRVEAGDEADFYCQVWDYATDHVVFGGGTKLTVL | > 25 µg/mL | no binding (tested: 100 nM antigen) | 0.911 nM | – | – | –
ADI-41610 (antibody, V domains shown, also called Ab 884; Antibody Number 884) VH: EVQLLESGGGVVQPGRSLRLSCAASELSFRNYGMHWVRQAPGKGLEWVAVISYDGNDKYYADSVKGRFTISRDNSKKTLYLQMDSLRAEDTAVYYCAKEGAYCGGDCFSSWGQGTLVTVSS VL: GIQLTQSPSSLSASVGDRVTITCRASQSSSSYLNWYQQKPGKAPKLLIYAASSLQSGVPSRFSGSGSGTDFTLTISSLQPEDFATYYCQQSYSFGGGTKVEIK | > 25 µg/mL | no binding (tested: 100 nM antigen) | 0.978 nM | – | – | –

— patent US20260258115A1 (MAPP BIOPHARMACEUTICAL, published 2026)
